Test results published in patent US20160136280A1, “STABLE INTRAVENOUS FORMULATION” (HOFFMANN-LA ROCHE INC., priority 2013, published 2016).

How the values were obtained:
Oxidation stability = format: physicochemical; details: base compound is the major oxidation product
Light stability = format: physicochemical; details: forms the base compound and other degradants
Water solubility = format: physicochemical

SMILES | sensitivity to oxidation (Oxidation stability) | hydrolysis kinetics in aqueous solutions (aqueous solutions, base compound is the major degradation product) | most stable pH range (from stability perspective) | sensitivity to light (Light stability) | solubility in water (Water solubility)
COCCOCCOC(=O)OC(C)OC(=O)c1ccc(NC(=O)[C@@H]2N[C@@H](CC(C)(C)C)[C@](C#N)(c3ccc(Cl)cc3F)[C@H]2c2cccc(Cl)c2F)c(OC)c1 (stereo partly drawn) [Compound A, 4-{[(2R, 3S, 5S)-4-(4-chloro-2-fluoro-phenyl)-3-(3-chloro-2-fluoro-phenyl)-4-cyano-5-(2,2-dimethyl-propyl)-pyrrolidine-2-carbonyl]-amino}-3-methoxy-benzoic Acid 1-[2-(2-methoxy-ethoxy)-ethoxycarbonyloxy]-ethyl ester] | vulnerable to oxidation | first-order kinetics | 3-5 pH | light sensitive | relatively more soluble in water
COc1cc(C(=O)O)ccc1NC(=O)[C@@H]1N[C@@H](CC(C)(C)C)[C@](C#N)(c2ccc(Cl)cc2F)[C@H]1c1cccc(Cl)c1F [base compound, 4-{[(2R,3S,4R,5S)-3-(3-chloro-2-fluoro-phenyl)-4-(4-chloro-2-fluoro-phenyl)-4-cyano-5-(2,2-dimethyl-propyl)-pyrrolidine-2-carbonyl]-amino}-3-methoxy-benzoic acid] | – | – | – | – | practically water insoluble
